Experiments:
[1] = target: hCA-IX expressed on cells (SKRC52, SKRC59, 67NR^hCA-IX) (human) (UniProt Q16790); assay: Plate-based cell binding assay, one site specific binding fit; cell line not given
[2] = target: hCA-IX expressed on cells (SKRC52, SKRC59, 67NR^hCA-IX) (human) (UniProt Q16790); assay: plate-based cell binding assay, mean fluorescent intensity per cell area, SKRC52 (hCA-IX high) cells

cG250 full sized antibody (FSA) was tested, and the Bmax (mean fluorescent intensity per cell area) [1] was 575, the Kd [1] was 1.29 nM and the EC50 (read off the curve) [2] was 1 nM.
